Measured values: US20100041597A1 (published 2010)

T1: PKC-ε (endogenous, human cell extracts) (human, UniProt Q02156 1-737)
T1 construct: Two bands on the blot, said to be alternate splicing variants; also called PKC-epsilon; PKC-ε Band 1
T1 sequence (looked up): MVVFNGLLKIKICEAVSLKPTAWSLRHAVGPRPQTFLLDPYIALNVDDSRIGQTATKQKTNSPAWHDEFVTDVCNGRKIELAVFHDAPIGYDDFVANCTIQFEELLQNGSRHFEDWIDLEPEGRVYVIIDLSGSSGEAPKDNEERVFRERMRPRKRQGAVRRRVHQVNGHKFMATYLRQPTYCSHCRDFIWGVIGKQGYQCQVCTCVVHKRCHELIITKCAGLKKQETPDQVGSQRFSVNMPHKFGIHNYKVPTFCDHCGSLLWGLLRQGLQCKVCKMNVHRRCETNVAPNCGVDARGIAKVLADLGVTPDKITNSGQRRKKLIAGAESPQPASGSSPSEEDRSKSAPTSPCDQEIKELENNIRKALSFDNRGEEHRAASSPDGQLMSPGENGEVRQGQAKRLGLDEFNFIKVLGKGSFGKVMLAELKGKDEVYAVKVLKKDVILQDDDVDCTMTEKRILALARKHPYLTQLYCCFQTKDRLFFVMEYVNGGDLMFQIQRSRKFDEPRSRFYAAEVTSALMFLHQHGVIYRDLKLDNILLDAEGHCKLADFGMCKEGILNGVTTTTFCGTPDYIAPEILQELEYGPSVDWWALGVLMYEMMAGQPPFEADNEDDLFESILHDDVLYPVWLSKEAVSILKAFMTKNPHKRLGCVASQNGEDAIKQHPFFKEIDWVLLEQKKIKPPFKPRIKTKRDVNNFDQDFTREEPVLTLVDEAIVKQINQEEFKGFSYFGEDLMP

T2: PKC-ι (endogenous, human cell extracts) (human, UniProt P41743 2-596)
T2 construct: also called PKC-iota
T2 sequence (looked up): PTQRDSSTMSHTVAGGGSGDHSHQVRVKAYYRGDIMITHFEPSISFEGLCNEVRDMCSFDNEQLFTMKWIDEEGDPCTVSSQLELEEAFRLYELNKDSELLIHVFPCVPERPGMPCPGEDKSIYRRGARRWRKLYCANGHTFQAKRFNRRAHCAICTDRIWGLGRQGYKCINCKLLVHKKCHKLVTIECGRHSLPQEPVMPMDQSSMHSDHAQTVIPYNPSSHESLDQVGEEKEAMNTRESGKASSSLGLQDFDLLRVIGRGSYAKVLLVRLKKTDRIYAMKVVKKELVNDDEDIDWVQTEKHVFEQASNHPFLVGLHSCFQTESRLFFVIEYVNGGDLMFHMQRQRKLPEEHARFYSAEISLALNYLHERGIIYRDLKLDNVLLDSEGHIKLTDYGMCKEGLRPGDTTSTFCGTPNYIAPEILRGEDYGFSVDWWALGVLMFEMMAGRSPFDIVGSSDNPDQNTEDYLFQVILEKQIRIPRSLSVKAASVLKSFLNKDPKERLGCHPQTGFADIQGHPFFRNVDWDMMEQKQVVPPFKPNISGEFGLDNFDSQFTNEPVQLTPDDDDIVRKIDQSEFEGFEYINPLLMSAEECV

T3: PKC-ζ (endogenous, human cell extracts) (human, UniProt Q05513 1-592)
T3 construct: also called PKC-zeta
T3 sequence (looked up): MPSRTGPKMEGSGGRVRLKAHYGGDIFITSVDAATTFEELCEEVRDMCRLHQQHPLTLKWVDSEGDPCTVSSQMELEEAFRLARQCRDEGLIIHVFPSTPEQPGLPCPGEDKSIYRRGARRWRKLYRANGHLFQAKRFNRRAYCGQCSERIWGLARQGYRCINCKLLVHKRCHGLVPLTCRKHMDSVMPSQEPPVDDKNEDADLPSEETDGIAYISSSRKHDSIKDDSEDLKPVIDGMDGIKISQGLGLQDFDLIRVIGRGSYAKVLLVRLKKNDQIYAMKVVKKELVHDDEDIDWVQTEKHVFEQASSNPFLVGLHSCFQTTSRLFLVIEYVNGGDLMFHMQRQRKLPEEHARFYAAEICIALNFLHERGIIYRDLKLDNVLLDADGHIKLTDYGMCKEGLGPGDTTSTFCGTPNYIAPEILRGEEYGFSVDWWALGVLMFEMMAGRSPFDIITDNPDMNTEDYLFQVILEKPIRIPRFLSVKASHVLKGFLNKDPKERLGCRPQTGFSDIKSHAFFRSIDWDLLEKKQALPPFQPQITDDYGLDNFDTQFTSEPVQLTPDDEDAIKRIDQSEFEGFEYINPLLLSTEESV


Key:
[1] = molecular target: T1, PKC-ε (endogenous, human cell extracts); assay: Protocol B blot competition, IMR-32 extract, competitor anti-PKC-ε Ab, Band 1; PRE 20 µg
Description: The ability of the peptides PRE 2 and PRE 3 (see Table 3) to interfere with the binding of a PKC-α-specific polyclonal antibody (Santa Cruz Biotechnology, Inc.) to PKC-α was determined using a modified version of the protocol outlined above in which the test peptide was added directly to the cell extract prior to electrophoresis at a concentration of either 5× or 15× the concentration of the protein applied to each well of the gel for the Western blots (20 μg).
Peptides PRE 2, PRE 3 and PRE 4 (see Table 3) were tested for their ability to interfere with the binding of isoform-specific polyclonal antibodies (Santa Cruz Biotechnology, Inc.) to PKC-ε using the general protocol described in Example 3. Two bands, representing alternate splicing variants of PKC-ε, were identified on the Western blot using this anti-PKC-ε antibody.

[2] = molecular target: T2, PKC-ι (endogenous, human cell extracts); assay: Western-blot competition on cell extracts against the anti-PKC-ι primary antibody; band densitometry
Description: (§1) Binding efficiency and specificity of the peptides PRE 2, 3, 4, 5, 6, 7, 8, 9, 10, 11, 12 and 13 (see Table 3) was also tested using cytoplasmic extracts from different cell lines expressing appropriate PKC isoforms as described for Example 1. Briefly, the protein cytoplasmic extracts were separated by electrophoresis and transferred onto nitrocellulose membranes by standard Western blotting procedures. The bands on the Western blots were detected with matching primary antibodies and alkaline phosphatase conjugated secondary antibody. The bands were then scanned and the relative density measurements obtained.
(§2) This procedure to assess the binding characteristics of the PREs is based on competition binding of the PRE with the primary anti-isoform PKC specific antibodies. The lower the measured band density, the greater the binding of the PRE to the PKC isoform. The PREs were added at 10 and 20 times (10×, 20×) the primary antibody concentration, according to classical competition between antigenic peptide and primary antibody. The following cell lines (obtained from the ATCC) were used: H661—NCI human lung carcinoma NSCLC; MDAMB231—human highly invasive breast cancer cell line from pleural effusion; LS180—human colon adenocarcinoma; LnCAP—human prostate adenocarcinoma; CCD16Lu—human lung fibroblasts; Du145—human prostate carcinoma brain metastasis, and T24—human bladder carcinoma.

[3] = molecular target: T3, PKC-ζ (endogenous, human cell extracts); assay: Western-blot competition on cell extracts against the anti-PKC-ζ primary antibody; band densitometry
Description: as §1, §2

| Binder | band intensity [1] | inhibition (%) [1] | relative intensity (%) [1] | binding result [2] | binding result [3] |
| --- | --- | --- | --- | --- | --- |
| Ac-KDAQNLIGISI-NH2 (Synthetic peptide; also called peptide PRE 4) [PRE 4] | 184 | 42.9% | 57.1% |  |  |
| Ac-AKGIQEVKGGDAQNLIGISI-NH2 (Synthetic peptide; also called peptide PRE 3) [PRE 3] | 5.12 | 99% | 0.12% |  |  |
| Ac-ISIGILQNADK-NH2 (Synthetic peptide (retro form of PRE 4); also called peptide PRE 7) [PRE 7] |  |  |  | no binding (tested: 20X the primary antibody concentration) |  |
| Ac-RDAQNLI-NH2 (Synthetic peptide; also called peptide PRE 13; Ac-RDAQNLI-NH2) [PRE 13] |  |  |  | no binding (tested: 20X the primary antibody concentration) | no binding (tested: 20X the primary antibody concentration) |
| Ac-KDANQLIGISI-NH2 (Synthetic peptide; also called peptide PRE 6) [PRE 6] |  |  |  | no binding (tested: 20X the primary antibody concentration) | no binding (tested: 20X the primary antibody concentration) |
